Here are results for 18 molecules from patent US20240254202A1 (CONSEJO NACIONAL DE INVESTIGACIONES CIENT FICAS Y T CNICAS …, published 2024).

Test [1] deals with T1, Receptor Binding Domain (RBD) of the SARS-COV-2 protein S (SARS-CoV-2, UniProt P0DTC2 319-541). Briefly: ELISA, purified nanobody, RBD coated. A general note: In an ELISA, binding on a coated surface is turned into a signal by an enzyme label.
Test [2] concerns the target T1, Receptor Binding Domain (RBD) of the …. Put plainly: phage ELISA, RBD coated.
For test [3], the target named is Peptide 84 of the Spike peptide array (B.E.I resources NR-52402). Put plainly: peptide array ELISA, 100 ng peptide coated, 100 ng nanobody per well.
For test [4], the target named is Spike protein of wild-type virus isolate USA-WA1/2020 (SARS-CoV-2, UniProt P0DTC2 14-1273). Briefly: cell-based or functional assay.
The target of test [5] is Peptide 125 of the Spike peptide array (B.E.I resources NR-52402). Put plainly: peptide array ELISA, 100 ng peptide coated, 100 ng nanobody per well.
Test [6] has as its target Peptide 175 of the Spike peptide array (B.E.I resources NR-52402). The description is as above.
The target in test [7] is Peptide 16 of the Spike peptide array (B.E.I resources NR-52402). The description is as above.
Test [8] deals with Peptide 59 of the Spike peptide array (B.E.I resources NR-52402). Described as above.
Test [9] addresses T1, Receptor Binding Domain (RBD) of the …. Described as told in Example 8.

B1: NbCoV_48 (VHH)
VHH: QVQLQESGGGLVQPGGSLRLSCVASRSIGSINHMAWYRKAPGKERELVASITLSPSETVYYTEVVKGRFAISKGNAQNTLYLQMNSLKPEDTAVYYCHFRQIRAIADDVYWGQGTQVTVSS
In general, EC50 refers to the concentration needed to bring the measured effect to its halfway point. A high value points to a less potent agent. Turning to B1, the half-maximal effective concentration (EC50) in test [1] is 1.78 nM. This counts as single-digit nanomolar.

B2: NbCoV_32 (VHH)
VHH: QVQLQESGGGSVQPGGSLRLSCAVSRSRFSLVTMGWYRQAPGKERELVAAIAIGGSTKYADSVKGRFTISRDNAKSTVYLQMNSLQPEDTAVYYCNEARVYDSNWYPRDYWGQGTQVTVSS
Take B2: the EC50 in test [1] was determined as 83.6 nM.

B3: NbCoV_27 (VHH)
VHH: QVQLQESGGGLVQPGGSLRLSCAASGSGFSLRVMGWYRQAPGKEHRLVATISRTGITNYADSVKGRFTISRDNAKDTVYLQMNNLKPEDTDVYYCYARNFVGDDFNLWGQGTQVTVSS
B3 showed an EC50 in test [1] of 0.7 nM.

B4: NbCoV_31 (VHH)
VHH: QVQLQESGGGLVQAGGSLRLSCAASGRTFSRSAVAWFRQAPGKEREFVAGISWSGRNVNYANSVKGRFTISRDSTKNTVYLQMNSLKPEDTAVYYCATSQFGSGTSDSEQYDYWGQGTQVTVSS
Regarding B4, a half-maximal effect in [1] (EC50) was put at 137 nM.

B5: NbCoV_44 (VHH)
VHH: QVQLQESGGGLVQAGGSLRLSCAASGRTVSYRVMGWFRQAPGKEREFVAFVDWSSGTAYYAESVQGRFIMSRDTADNTGFLQMNNLKPEDTAVYYCAADPFFRVIAYSDPKRYSYWGQGTQVTVSS
B5 had a concentration for a half-maximal effect (EC50) in test [1] of 16.8 nM.

B6: NbCoV_29 (VHH)
VHH: QVQLQESGGGLVQAGGSLRLSCAASGRTLYAMGWFRQAPGKEREFVAAKSWNGGNTYYADSVKGRFTISKDNAKNTVYLQMNSLKPEDTAVYNCAASSWDSRGSSNYVHYDYWGQGTQVTVSS
B6 showed an EC50 in [1] of 55.9 nM. This EC50 lies about 3.3-fold higher than the previous one.

B7: NbCoV_45 (VHH)
VHH: QVQLQESGGGLVQAGGSLRLSCVASGRTLYAMGWFRQAPGKEREFVAATSWNGGNTNYGESVKGRFTISKDNAKNTVYLQMNSLKPEDTAVYNCAASSRDSRGTSTYASYDYWGQGTQVTVSS
notes: also called Nb 45; Nb45
On to B7, for which the binding result in test [2] is “no binding”.

B8: NbCoV_125 (VHH)
VHH: QVQLQESGGGLVQPGGSLRLSCAASAHFFSGGAMGWYRQAPGKERELVATITGGGDTNYAEHVKGRCTISSDISDNTVYLQMISLKPDDTAVYYCYARDLLQHPFWGQGTQVTVSS
Turning to B8, the binding result in test [2] was “binds”. The “OD 405 nm” value in [3] came out at 0.214 OD 405 nm.

B9: NbCoV_104 (VHH)
VHH: QVQLQESGGGLVQPGGSLRLSCAASGSIFRVMGWYRQAPGKEHDLVATITRSGDTNYADSVKGRFTISRDNTKNTVYLQMNNLKPEDTDVYYCYARNFVGHNPDVWGQGTQVTVSS
notes: also called Nb 104
B9: in test [4], the “wildtype VN, plaque reduction assay, neutralizing activity” value (shortened to “wildtype VN, plaque reduction assay”) was determined as 0.977 nM. The molecule further had an EC50 in test [1] of 5.45 nM. The “OD 405 nm” value came out at 0.731 OD 405 nm in test [5] and 0.503 OD 405 nm in test [6].

B10: NbCoV_71 (VHH)
VHH: QVQLQESGGGLVQAGGSLRLSCAASGLTFGYTATAWFRQAPGKEREFVARIFKRGGYTYYSDSVKGRFTVSRDSAKDTVYLQMNSLKSEDTAVYYCAVAREWSDLDFRDGYDYWGQGTQVTVSS
Regarding B10, it took 1.63 nM to reach a half-maximal effect in test [1] (EC50).

B11: NbCoV_110 (VHH)
VHH: QVQLQESGGGLVQAGDSLRLSCAASGRTFGSHATAWFRQAPGKEREFVARIFWRGDYTYYADSVKGRFTISRDSAKNTVYLQMNSLKSEDTAVYYCAVARSWSDLDFENGYDYWGQGTQVTVSS
notes: also called Nb 110
Molecule B11 registered an EC50 in test [1] of 32.4 nM. Also, in test [7], the “OD 405 nm” value amounted to 0.64 OD 405 nm.

B12: NbCoV_78 (VHH)
VHH: QVQLQESGGGLVQAGGSLRLSCVASGRAFSSSSMGWFRQAPGKEREFVAAIRWSDDNTVYVDSVKGRFAISRDNAKNTVYLQMNSLKPEDTAVYYCAATGLGYRYAVLESRSEYRYWGQGTQVTVSS
B12 yielded an EC50 in [1] of 16.6 nM.

B13: NbCoV_46 (VHH)
VHH: QVQLQESGGGLVQAGDSLRLSCAASGRTFSSLSAGWFRQAPGKEREFVAAIRWSDYNTYYVDSVKGRFTISRDNAKNTVYLQMDSLKPEDTAVYYCAATALGYRYASLESRNEYRYWGQGTQVTVSS
Regarding B13, the binding result in test [2] is reported as “no binding”.

B14: NbCoV_39 (VHH)
VHH: QVQLQESGGGLVQAGGSLRLSCAASGRTFSSTAMAWFRQAPGQEREFVATISWSGDNTKYADSVKGRFTISRDNAKNTVYLQMNSLKPEDTAVYYCAADPGNFGVPIEYFMFDYWGQGTQVTVSS
notes: also called Nb 39; 39A
For B14, in test [4], the “wildtype VN, plaque reduction assay” value is 0.244 nM. The molecule further yielded a 50% effective concentration (EC50) in test [1] of 0.29 nM. Besides, in test [8], the “OD 405 nm” value is 0.423 OD 405 nm.

B15: NbCoV_145 (VHH)
VHH: QVQLQESGGGLVQAGGSLRLSCAASGRTFSSYAMGWFRQAPGKEREFVAVINWSGANTRYTDSVKGRFSISRDNAKNTVYLQMNSLKPEDTAVYYCAADPGNFGVPIEHFMYDYWGQGTQVTVSS
notes: also called Nb 145
In [1], B15 showed an EC50 of 4.63 nM.

B16: NbCoV_10 (VHH)
VHH: QVQLQESGGGLVQAGGSLHLSCTASGSENMLRWYAVGWYRQAPGKQRELVATITRGGSTNVVDSVKGRFTISRDNAKNMVALQMNSLKPEDTAVYSCAAAYAPYTDYHPVEYVYWGQGTQVTVSS
notes: also called Nb 10; 10 Mebus
With B16, in test [9], the binding result is “binds”. The “OD 405 nm” value in test [3] turned out to be 0.226 OD 405 nm.

B17: NbCoV_43 (VHH)
VHH: QVQLQESGGGLVQPGGSLRLSCVASGSIGSINHMAWFRKPPGKERELVASITLAPDEIAYYADSVKGRFAISKGNAQPTLYLQMNSLKPEDTAVYYCHFRQIRANAHDVYWGQGTQVTVSS
notes: also called Nb 43
Turning to B17, the “wildtype VN, plaque reduction assay” value in test [4] was found to be 3.12 nM. The molecule further showed an EC50 in test [1] of 0.18 nM. Moreover, the “OD 405 nm” value in test [3] stood at 0.555 OD 405 nm.

B18: NbCoV_136 (VHH)
VHH: QVQLQESGGGLVQTGGSLRLSCAASGRTASSYTMGWFRQAAGKERDFVAAIRESLGYTNYADSVKGRFTISRDNANNTVYLQMNSLKPEDTAVYYCAAYEGIRYSSTRADFYNYWGQGTQVTVSS
B18: in test [1], a half-maximal effect (EC50) was put at 13.4 nM. In other words, the double-digit nanomolar range.
